# Patent publication US20120128689A1 (GlaxoSmithKline, published 2012)
# Numbering of substitutions follows the chain as printed.
# T1: human IL-23 (human, UniProt Q9NPF7 20-189; P29460 23-328)
# T1 construct: Heterodimer of p19 and p40; also called hIL-23
# T1 sequence 1: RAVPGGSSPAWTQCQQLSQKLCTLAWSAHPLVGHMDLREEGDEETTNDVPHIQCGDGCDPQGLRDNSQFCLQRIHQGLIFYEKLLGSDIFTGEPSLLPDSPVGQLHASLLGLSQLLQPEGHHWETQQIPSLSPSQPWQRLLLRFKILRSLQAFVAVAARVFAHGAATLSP
# T1 sequence 2: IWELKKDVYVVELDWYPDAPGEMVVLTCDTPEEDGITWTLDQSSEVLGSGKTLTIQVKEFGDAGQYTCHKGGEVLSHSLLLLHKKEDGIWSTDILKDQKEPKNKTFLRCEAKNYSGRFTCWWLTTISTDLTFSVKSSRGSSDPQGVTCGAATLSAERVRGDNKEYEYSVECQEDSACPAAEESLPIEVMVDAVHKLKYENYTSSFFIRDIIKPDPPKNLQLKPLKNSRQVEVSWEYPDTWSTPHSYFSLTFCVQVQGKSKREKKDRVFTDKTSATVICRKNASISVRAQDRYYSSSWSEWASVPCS
# T2: cyno IL-23 (cyno, limits assumed)
# T2 construct: Heterodimer of p19 and p40; also called cynomolgus IL-23
# T2 chain 1: T1 sequence 1 with T12A, H75R, L131P
# T2 chain 2: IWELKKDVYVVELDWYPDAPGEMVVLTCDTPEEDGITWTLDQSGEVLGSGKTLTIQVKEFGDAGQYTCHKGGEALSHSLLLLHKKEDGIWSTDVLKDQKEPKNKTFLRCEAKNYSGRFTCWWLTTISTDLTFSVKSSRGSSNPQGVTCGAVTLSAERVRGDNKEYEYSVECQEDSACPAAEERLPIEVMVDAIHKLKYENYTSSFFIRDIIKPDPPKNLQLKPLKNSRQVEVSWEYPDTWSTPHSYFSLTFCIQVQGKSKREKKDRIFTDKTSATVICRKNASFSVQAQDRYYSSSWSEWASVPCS
# B1: A5M20 (antibody, human IgG1, kappa, V domains shown)
# VH: QVQLVQSGAEVKKPGSSVKVSCKASGYTFTSYGITWVRQAPGQGLEWMGENYPRSGNTYYNEKFKGRVTITADKSTSTAYMELSSLRSEDTAVYYCARAEFISTVVAPYYYALDYWGQGTLVTVSS
# VL: DIVMTQSPDSLAVSLGERATINCKASKKVTIFGSISALHWYQQKPGQPPKLIYNLAKLESGVPDRFSGSGSGTDFTLTISSLQAEDVAVYYCLQNKEVPYTFGGGTKVEIKR
# B2: A5M12 (antibody, human IgG1, V domains shown)
# VH: B1 VH
# VL: DIVMTQSPDSLAVSLGERATINCKASKKVTIYGSTSALHWYQQKPGQPPKLIYNGAKPESGVPDRFSGSGSGTDFTLTISSLQAEDVAVYYCLQNKEVPYTFGGGTKVEIK
# B3: A5M0 (antibody, human IgG1, kappa, V domains shown)
# VH: B1 VH
# VL: B1 VL with L55G
# B4: A5M21 (antibody, human IgG1, kappa, V domains shown)
# VH: B1 VH
# VL: B1 VL with F32Y, I35T, L58P
# B5: A24AM4 (antibody, human IgG1, kappa, V domains shown)
# VH: B1 VH with T58I
# VL: B1 VL with I35T, L55G, L58P
# B6: A3M0 (antibody, human IgG1, kappa, V domains shown)
# VH: B1 VH with A99S
# VL: B1 VL with L55G
# notes: human gamma1 and kappa constant regions; Tested as HEK supernatant and as purified antibody; also called A3M0 purified
# B7: A24AM18 (antibody, human IgG1, kappa, V domains shown)
# VH: B1 VH with T58I
# VL: B1 VL with I35T, L58P
# B8: A3M18 (antibody, human IgG1, kappa, V domains shown)
# VH: B1 VH with A99S
# VL: B1 VL with I35T, L58P
# B9: A6M20 (antibody, human IgG1, kappa, V domains shown)
# VH: B1 VH with A99V
# VL: B1 VL
# Target: T1, human IL-23
# Experiment: inhibition ELISA: antibody pre-incubated with a constant concentration of human IL-23, IL-23 bound to plate-coated human IL23R Fc chimera detected with biotinylated anti-human IL12, OD450
# Procedure: Plates were coated with human IL23R Fc chimera at […] (phosphate buffered saline). 50 μl/well of this mixture was incubated overnight at 4° C. The plates were then washed three times with Phosphate Buffered Saline with 0.05% Tween 20 (PBST). Plates were blocked with 4% skim milk powder (Fluka BioChemika #70166) PBST 100 μl/well for a minimum of 1 hour at room temperature. The plates were then washed three times with Phosphate Buffered Saline+0.05% Tween 20 (PBST). Various concentrations of antibody were incubated in a separate plate with a constant concentration of IL-23 for 1 hour at room temperature. 50 ul of each mixture were transferred to the assay plate and incubated at RT for 1 hr. They were then washed three times with Phosphate Buffered Saline+0.05% Tween 20 (PBST). Bound IL23 was detected by anti human IL12 Biotin labelled Ab (R&D systems BAF219) diluted to 100 ng/ml in 4% skim milk powder (Fluka BioChemika #70166) PBST. 50 μl/well of the biotinylated antibody was added and incubated at RT for 1 hour. The plates were then washed three times with Phosphate Buffered Saline+0.05% Tween 20 (PBST). SA HRP (GE healthcare RPN4401) was diluted 1/4000 in 4% skim milk powder (Fluka BioChemika #70166) PBS, 50 μl/well was added to the plates. The plates were then washed three times with Phosphate Buffered Saline+0.05% Tween 20 (PBST). 50 ul/well of TMB was added to the plates and incubated at RT for 15 min. 25 μl/well of 3 MH₂SO₄ was added to the wells already containing TMB. The plate was read at OD450 nm using the SOftmaxPRO versamax plate reader.
row,Binder,IC50 (read off the curve) [nM]
1,B1,~0.2
2,B2,~0.2
3,B3,~0.3
4,B4,~0.2
5,B5,~0.2
6,B6,~0.7
7,B7,~0.2

# Target: T1, human IL-23
# Experiment: cell-based or functional assay
row,Binder,IC50 (inhibition of IL-23 driven STAT3 phosphorylation in human activated T cell blasts) [nM]
1,B1,0.0685
2,B4,0.0384
3,B6,0.115
4,B7,0.0473

# Target: T2, cyno IL-23
# Experiment: SPR Biacore, purified mAb captured on anti-human IgG, cyno IL-23 64-0.062 nM
# Procedure: (§1) An anti-human IgG (Biacore BR-1008-39) was immobilised on a Biacore CM5 chip by primary amine coupling in accordance with the manufacturer's instructions. Anti IL-23 antibodies were captured on this surface and after a period of stabilisation, IL-23 (cyno or human) was passed over the antibody captured surface and a binding sensorgram was obtained. […] All runs were double referenced with a buffer injection over the captured antibody surface. Data was analysed using the 1:1 model using the software inherent to the Biacore T100. Analysis was carried out at 25° C. using HBS-EP buffer. Data presented in Tables 1 and 2 are on tissue culture supernatants of HEK cells transiently expressing the antibody of interest unless otherwise indicated.
# (§2) This experiment was repeated with purified IL-23 antibodies and data shown in Table 3 was generated using 64, 16, 4, 1, 0.25 and 0.062 nM concentrations of human and cyno IL-23.
Binder,Kd [nM],koff [s⁻¹],kon [M⁻¹ s⁻¹]
B1,0.086,0.000176,2.05e+06
B2,0.093,0.000134,1.45e+06
B3,0.173,0.000224,1.3e+06
B4,0.075,0.00012,1.6e+06
B5,0.085,0.000147,1.74e+06
B6,0.302,0.000298,984000
B7,0.07,0.000132,1.88e+06

# Target: T1, human IL-23
# Experiment: SPR Biacore T100, purified mAb captured on anti-human IgG, human IL-23 64-0.062 nM
Binder,Kd [nM],koff [s⁻¹],kon [M⁻¹ s⁻¹]
B6,0.197,0.000235,1.19e+06

# Target: T2, cyno IL-23
# Experiment: SPR Biacore T100, purified mAb captured on anti-human IgG, one concentration of cyno IL-23 (256 nM)
Binder,Kd [nM],koff [s⁻¹],kon [M⁻¹ s⁻¹]
B6,0.332,0.000583,1.76e+06

# Target: T1, human IL-23
# Experiment: SPR Biacore T100, mAb from HEK supernatant captured on anti-human IgG, human IL-23 64-0.062 nM
# Procedure: as §1
Binder,Kd [nM],koff [s⁻¹],kon [M⁻¹ s⁻¹]
B1,0.066,0.000159,2.41e+06
B8,0.066,0.000115,1.73e+06
B4,0.065,0.000113,1.73e+06
B9,0.078,0.000205,2.62e+06
B6,0.207,0.000239,1.16e+06
B7,0.051,0.000122,2.4e+06

# Target: T1, human IL-23
# Experiment: SPR Biacore, purified mAb captured on anti-human IgG, human IL-23 64-0.062 nM
# Procedure: as §1, §2
Binder,Kd [nM],koff [s⁻¹],kon [M⁻¹ s⁻¹]
B1,0.061,0.00014,2.29e+06
B2,0.08,0.000132,1.66e+06
B3,0.114,0.000175,1.54e+06
B4,0.064,0.000112,1.74e+06
B5,0.065,0.000132,2.02e+06
B6,0.186,0.000216,1.16e+06
B7,0.053,0.000115,2.16e+06

# Target: T2, cyno IL-23
# Experiment: SPR Biacore T100, mAb from HEK supernatant captured on anti-human IgG, one concentration of cyno IL-23 (256 nM)
# Procedure: as §1
Binder,Kd [nM],koff [s⁻¹],kon [M⁻¹ s⁻¹]
B1,0.115,0.000306,2.66e+06
B8,0.185,0.000163,883000
B4,0.169,0.000123,727000
B9,0.136,0.000497,3.65e+06
B6,0.365,0.000484,1.33e+06
B7,0.092,0.000176,1.91e+06
